This data set concerns the target T1, Cas1821 (Cascade backbone);Cas1822;Cas6f (Shewanella putrefaciens …, UniProt A4Y6G1;A4Y6G2;A4Y6G3 1-315;1-336;1-183, ||).
T1 sequence 1: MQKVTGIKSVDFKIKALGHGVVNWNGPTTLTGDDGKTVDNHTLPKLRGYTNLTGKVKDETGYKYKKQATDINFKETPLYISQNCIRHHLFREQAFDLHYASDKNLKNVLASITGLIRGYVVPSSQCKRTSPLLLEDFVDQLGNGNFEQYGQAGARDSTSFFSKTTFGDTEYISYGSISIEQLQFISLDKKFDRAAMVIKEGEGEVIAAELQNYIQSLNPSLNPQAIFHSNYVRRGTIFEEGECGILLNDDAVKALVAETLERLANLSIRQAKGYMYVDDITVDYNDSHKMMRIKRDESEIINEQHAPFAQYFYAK
T1 sequence 2: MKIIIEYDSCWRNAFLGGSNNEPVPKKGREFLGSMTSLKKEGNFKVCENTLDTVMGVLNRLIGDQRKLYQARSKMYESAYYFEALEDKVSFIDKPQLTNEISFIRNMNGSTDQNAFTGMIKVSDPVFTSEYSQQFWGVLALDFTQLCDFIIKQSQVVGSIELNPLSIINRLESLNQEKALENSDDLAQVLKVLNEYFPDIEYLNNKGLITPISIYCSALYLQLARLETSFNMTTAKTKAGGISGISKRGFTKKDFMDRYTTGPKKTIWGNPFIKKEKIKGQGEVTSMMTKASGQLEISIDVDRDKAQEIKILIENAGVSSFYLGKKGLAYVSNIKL
T1 sequence 3: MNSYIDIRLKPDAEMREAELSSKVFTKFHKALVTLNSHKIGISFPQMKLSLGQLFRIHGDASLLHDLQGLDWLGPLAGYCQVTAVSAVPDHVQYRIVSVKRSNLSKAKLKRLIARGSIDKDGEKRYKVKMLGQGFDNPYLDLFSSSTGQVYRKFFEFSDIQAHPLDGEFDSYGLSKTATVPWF
Kind of data set: co-purification (Ni-NTA, size exclusion; RNA by urea PAGE); complex assembled in E. coli; EMSA: 6% native PAGE, 250-500 nM Cas1821, buffer and temperature not given; Cascade SEC: 50 mM HEPES-NaOH pH 7.0, 150 mM NaCl, 1 mM DTT. Particulars: protein: recombinant;recombinant;recombinant; tags: N-terminal His;none;none; chain copies: 6;1;1; 3' five base pair stem-loop (predicted).

B1: mature crRNA, spacer4 (60 nt) (structured_RNA)
RNA: CUUAGAAAUAUCGCCCAGCAAGACGCGCAAACCUAUAACCGUUCACCGCCGCACAGGCGG
Consider B1, for which the binding result was “binds”.

(Values after publication PMC4605320, “Interference activity of a minimal Type I CRISPR–Cas system from Shewanella putrefaciens”.)
